Measurements published in paper PMC6125206 (Structure (London, England : 1993), 2018).

Molecular target: the molecule itself
Experiment: AUC

B1: E. coli cyclopropane fatty acid (CFA) synthase, wild type (from His6-TEV-CFA synthase) (enzyme, UniProt P0A9H7 1-382, looked up)
chain: MSSSCIEEVSVPDDNWYRIANELLSRAGIAINGSAPADIRVKNPDFFKRVLQEGSLGLGESYMDGWWECDRLDMFFSKVLRAGLENQLPHHFKDTLRIAGARLFNLQSKKRAWIVGKEHYDLGNDLFSRMLDPFMQYSCAYWKDADNLESAQQAKLKMICEKLQLKPGMRVLDIGCGWGGLAHYMASNYDVSVVGVTISAEQQKMAQERCEGLDVTILLQDYRDLNDQFDRIVSVGMFEHVGPKNYDTYFAVVDRNLKPEGIFLLHTIGSKKTDLNVDPWINKYIFPNGCLPSVRQIAQSSEPHFVMEDWHNFGADYDTTLMAWYERFLAAWPEIADNYSERFKRMFTYYLNACAGAFRARDIQLWQVVFSRGVENGLRVAR
stoichiometry N: 2
